Experimental data from US20250297255A1 (ARSENAL BIOSCIENCES, published 2025).

Tests used:
[1] = target: T1, ECL-mFc fusion protein (human SLC34A2 ECL2 fused to murine Fc) (human, biotinylated (site not stated)); test: ELISA, biotinylated antigen on NeutrAvidin plate, anti-human Fc-HRP
T1 construct: The range 234-362 is the ECL2 part counted on human SLC34A2; also called mECL2-Fc protein
T1 chain: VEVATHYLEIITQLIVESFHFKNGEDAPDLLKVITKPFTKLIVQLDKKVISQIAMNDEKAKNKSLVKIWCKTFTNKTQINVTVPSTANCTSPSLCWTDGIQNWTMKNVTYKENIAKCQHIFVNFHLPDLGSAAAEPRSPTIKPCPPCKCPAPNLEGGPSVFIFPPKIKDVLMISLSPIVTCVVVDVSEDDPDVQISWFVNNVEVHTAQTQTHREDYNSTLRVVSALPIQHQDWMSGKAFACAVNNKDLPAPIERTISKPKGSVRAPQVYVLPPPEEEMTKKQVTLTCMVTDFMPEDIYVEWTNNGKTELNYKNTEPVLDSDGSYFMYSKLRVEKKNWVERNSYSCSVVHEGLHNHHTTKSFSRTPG

[2] = target: T2, SLC34A2 peptide fragment (peptide 1) (human, biotinylated (site not stated)); test: as above
T2 construct: ELISA antigen captured on NeutrAvidin plates; also called SLC34A2 peptide immunogen
T2 peptide: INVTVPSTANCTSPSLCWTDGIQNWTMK

[3] = target: T3, Human Solute Carrier Family 34 Member 2 (SLC34A2) (human, UniProt O95436 1-690); test: flow cytometry on OVCAR-3 cells (endogenous human SLC34A2), hIgG1/kappa, 8 five-fold dilutions from 133 nM;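 further: binding read as geometric mean fluorescence intensity, with non-transfected HEK293 cells serving as the negative control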
T3 construct: Endogenous on OVCAR-3 cells; engineered on 786-O cells in the CAR kinetics assay; also called NaPi2b; NPT2B
T3 sequence: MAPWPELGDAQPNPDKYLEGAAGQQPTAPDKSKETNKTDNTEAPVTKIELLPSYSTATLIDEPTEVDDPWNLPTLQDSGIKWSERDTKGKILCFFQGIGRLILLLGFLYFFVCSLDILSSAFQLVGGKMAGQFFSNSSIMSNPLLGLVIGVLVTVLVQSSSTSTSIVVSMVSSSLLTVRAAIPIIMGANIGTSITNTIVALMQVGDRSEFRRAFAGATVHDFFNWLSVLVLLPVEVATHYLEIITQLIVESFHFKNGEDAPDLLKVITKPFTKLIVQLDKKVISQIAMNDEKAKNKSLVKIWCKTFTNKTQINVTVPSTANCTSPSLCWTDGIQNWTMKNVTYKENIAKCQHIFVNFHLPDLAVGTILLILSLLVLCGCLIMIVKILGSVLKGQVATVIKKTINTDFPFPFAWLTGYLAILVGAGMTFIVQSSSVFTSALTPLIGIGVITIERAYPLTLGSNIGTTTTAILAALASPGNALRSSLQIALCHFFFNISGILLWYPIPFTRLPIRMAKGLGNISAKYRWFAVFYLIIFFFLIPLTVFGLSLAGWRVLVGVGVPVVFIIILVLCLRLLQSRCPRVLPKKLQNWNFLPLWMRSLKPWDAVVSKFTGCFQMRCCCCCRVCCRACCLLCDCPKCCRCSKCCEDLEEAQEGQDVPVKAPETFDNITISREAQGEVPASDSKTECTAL

B1: SLC34A2 Ab 12 (antibody, V domains shown)
VH: QVQLQESGPGLVKPSETLSLTCTVSGGSISSSSYYRGWIRQPPGKGLEWIGSIYYSGSTYYNPSLKSRVTISVDTSKNQFSLKLSSVTAADTAVYYCARHPRGSYGANFDYWGQGTLVTVSS
VL: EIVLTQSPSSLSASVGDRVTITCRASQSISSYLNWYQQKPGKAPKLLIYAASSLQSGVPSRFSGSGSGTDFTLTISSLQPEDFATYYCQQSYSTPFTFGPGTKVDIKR
notes: recombinant hIgG1/kappa from TAP products in Expi293
binding result [1]: binds | binding result [2]: binds | EC50 [3]: 5 nM | Max Signal by flow cytometry [3]: 305
